Experimental data reported in the DeepSol protein solubility set.

assay: soluble on expression in E. coli; label from the status in PepcDB or PDB records

| Sequence | soluble on expression in E. coli |
| --- | --- |
| MSSRKNFSRLTWFRKQRKAVVSSNDKKMPNGILEEQEQQRVMLLSRSPSGPKKFFPIPVEHLEEEIRVRSADDCKRFREEFNSLPSGHIQGTFELANKEENREKNRYPNILPNDHCRVILSQVDGIPCSDYINASYIDGYKEKNKFIAAQGPKQETVNDFWRMVWEQRSATIVMLTNLKERKEEKCYQYWPDQGCWTYGNIRVCVEDCVVLVDYTIRKFCIHPQLPDSCKAPRLVSQLHFTSWPDFGVPFTPIGMLKFLKKVKTLNPSHAGPIVVHCSAGVGRTGTFIVIDAMMDMIHSEQKVDVFEFVSRIRNQRPQMVQTDVQYTFIYQALLEYYLYGDTELDVSSLERHLQTLHSTATHFDKIGLEEEFRKLTNVRIMKENMRTGNLPANMKKARVIQIIPYDFNRVILSMKRGQEFTDYINASFIDGYRQKDYFMATQGPLAHTGEDFWRMVWEWKSHTIVMLTEVQEREQDKCYQYWPTEGSVTHGDITIEIKSDTLSEAISVRDFLVTFKQPLARQEEQVRMVRQFHFHGWPEVGIPAEGKGIIDLIAAVQKQQQQTGNHPITVHCSAGAGRTGTFIALSNILERVKAEGLLDVFQAVKSLRLQRPHMVQTLEQYEFCYKVVQDFIDIFSDYANFK | soluble |
| MGSDKIHHHHHHMASRLPPLNALRAFDASARQLSFTRAAEELFVTQAAISHQIKSLEDHLGIKLFMRKNRALLLTEEGQSYYLDIKDIFTSLHEATERLLARGAKGAITVSSQASFAIQWLVPRLTAFNSLHQDIDVRIKAVDQPENSLTEDVDIAIYYGRGRWPNIHADKLHTEYLIPVCSPLLVQENAANGKPPLLTLEDLSEHTLLHDTSRKDWKRWFKQVGVKGANVNHGPIFSHSAMVLQAALHGQGIALAYSVLAKPDIDSGRLVCPFNDVLVSKNAYFIVCRENQKDIGKITAFREWMLDMVEAEQAQITDGQIS | not soluble |
| MSLARPQLTILHCGKLIDGHSKNTKKVVSIIVEKNTIVDIADGYVDPGEGDLAIDLNGYTVLPGLMDMHVHLSGESNPKRYTERFTMDLDDYAYRSIAYAKRTLMAGFTTVRDLGGPINTSLRDAINNNQVVGPRVYSAGKAIATTGGHADPTNGMKFELMGDPGPAEGVVNGIAEARKAVRQRYKNGADLIKITATGGVLSVAKNGENPQFQEDEIRAIVETATDYGMHVAAHAHGAEGMKRAVRAGVRSIEHGTLMDEETMALMKEKGTYYIPTISAGEFVAEKAEIDGYYPDIVRPKAKKIGPQIKKTFQKAYDAGVSIAFGTDSGVSYHGDNAKEFAYMVEAGMSEIEAIISATKTAAELLEISNTLGTIEKDKLADIIAVEGDPIENIVALESVVFVMKNGVIYKNGDNEGHHHHHH | soluble |
| MEQSIFRDEKGDCPIVYLAGTLISIGSKPSARYGVCWGAGHAKNEGGPVAGSQTSLRAELTALRRTLEIALAEDITKLIIVFPSKMLGEQLEVWERRPEQHASFENSDILYRVEQLFGEAEARMYFSIDLPTPPDPRAHGYTKALQLARTMLVASRISRNSQITTVAIFAICEKEGKCDALAKYGVYWGQDDHRNEAGLVEDGQTSLRAIMCAVRSALRTAAMHGLKRVHFLTRRIDIINIIKKLAKGEEEDSPGKRNGAIFSDCSRLRSELLDISVKLVQKDVPCVELDRAEAITRGATKKLKKRDNEYERLDRQLLMIESSSSASSPESQPKIENIGDKCPTAVILNLLVRPKFGHSKVSYAVYWGENDEKNERGPVNMRAHAFQADLYAAMCALKKARSKNIRKLHLLTTSEYFKNWMENVQKKNELINDRYDVMMEFQLLLQNFESVTIEVVNSSTQGARRKMYEDAQTFFAGRNESIQKQRSIEDIQLEDPIENNIVEAESVNPESSNQIQVVYVGGACRGRGYANALAVYSVVWPIGEYGCSQGPVTGIVNNIRAKLAAVKSALQQAEQLGIASLIIRTNDQMVHDTLILQNSPIGNIDLMDDIESYKSRMRFVAYQLTTGDYARGNVVADRLAEVIVESIF | soluble |
| MSLNGTSGSVARQLAARRIIGTSWRLFVAYLKWSGVLEVSFKGVEKLNRPGQLILANHPSLLDVVLLVGHVPEMNCIVKKDLQHNPAMSSQIKGAGYIPNEESEAMLETVKAVFDSGQSLLVFPEGTRTGWDGRVKMHRGAVSLGLRYAEVITPVCIKMNPPNFKKGQPWYRIPPKRIRYEITVGDDILPQDWLAEKPLPIAARRLNEYLQDYFTRKTIEGHHHHHH | not soluble |
| MSLAPCGLVPSARQLEWYNREMIAFFHFGINTFEEYVNEGDGKASTAIFNPTALDCRQWMQTLKAAGIPAAILTAKHADGFCLWPSKYTDYSVKNAAWKNGKGDVVREFVDACEEYGLKAGIYLGPHDRHEHLSPLYTTERYKEYYAHQLGELMSDYGKIWETWWDGAGADELTTPVYRHWYKIVREKQPDCVIFGTKNSYPFADVRWMGNEAGEAGDPCWATTDSVAIRDEAQYYKGLNEGMLDGDAYIPAETDVSIRPSWFYHAEEDSRVKSVRELWDIYCTSVGRNSVLLLNFPPDRRGLIHSTDSLHAALLKQGIDETFSTNLLRGAKVKATNVRGAKYSPEKMLDNEKNTYFAGKDGEVKADIIFTLPKTIEFDCLMIEEVIELGHRTTKWSVEYTVDGKNWITIPEATDKQAIGHKWIVRLAPVKAKQVRLRIQDGKACPAIHTFGVYKQSPVFKEGHHHHHH | soluble |
| MGSDKIHHHHHHMASNITGFELFKSNPNWQELPDSFWEFCSAHGRVRHYAAKQFLFFFGEESNSVYFLLKGRIQILLMSEFTEKIFRILQPPAFFPEVVLDSKTYPYAALTAEASDVFVLDRKALVQYFKENPSTLLPFYQNMALDLRRAYRQIKNIALGDARSRLGAKLFALAHVHGQETPEGILITVPLTATELAGMCSLARESVSRILSELRDLGILKMEKKQITISDLEQLRSWIHERQNSL | not soluble |
| MTCLSRDWATAQRLVEWALASTRCECFNVDSNFMAGLCLVENPTKQHYSFEVRKQVVDRFNAGQSKMDLAREFGLSSDQLVSSWVRAWRAGGDEALRPKPKGRPKGSASSKPLTEEDRLRREVEKLRAENAYLKKLRDLRNQRRS | not soluble |
| MTVFVDHKIEYMSLEDDAELLKTMAHPMRLKIVNELYKHKALNVTQIIQILKLPQSTVSQHLCKMRGKVLKRNRQGLEIYYSINNPKVEGIIKLLNPIQ | soluble |
| MGSDKIHHHHHHMYIESFKQHFSAIDDHRQSAKVTYPLFDVLFGSLCAVIASSNGWFEIREYILGHHSWFKKQKMFIDGIPADDTIARIVSMIEPDSFNACFLAWMKSVHQLTNGEVIAIDGKTLRGSYNRDDRSSTIHMISAYASANKLVLGQLKAEQKSNEITAIPTLLKMLDLRGALVTIDAMGCQTAIATTIIDKGGDYLLAVKNNQGNLAKAINKAFSSHRSAGLSDDHVNIEKSHGRIENRACFVLSSAELDGDFTHWEALKSIVMVESFRAVKGKTASLEYRYYISSKVLSAEQALSATREHWGIESMHWVLDVSMNEDECQIYKNNGAENLAYLRHMSLNMLQKEPTKLSIVGKRKRCLMNPAFLEKVLIAGLCAPTK | not soluble |
| MSNKFHCDVCSADCTNRVRVSCAICPEYDLCVPCFSQGSYTGKHRPYHDYRIIETNSYPILCPDWGADEELQLIKGAQTLGLGNWQDIADHIGSRGKEEVKEHYLKYYLESKYYPIPDITQNIHVPQDEFLEQRRHRIESFRERPLEPPRKPMASVPSCHEVQGFMPGRLEFETEFENEAEGPVKDMVFEPDDQPLDIELKFAILDIYNSRLTTRAEKKRLLFENHLMDYRKLQAIDKKRSKEAKELYNRIKPFARVMTAQDFEEFSKDILEELHCRARIQQLQEWRSNGLTTLEAGLKYERDKQARISSFEKFGASTAASLSEGNSRYRSNSAHRSNAEYSQNYSENGGRKKNMTISDIQHAPDYALLSNDEQQLCIQLKILPKPYLVLKEVMFRELLKTGGNLSKSACRELLNIDPIKANRIYDFFQSQNWM | soluble |
| MADTVKLFPENLVTYKLLGEPDGPHYAHYDLVGGRLVVSKKCVSEAPVKKDAISV | not soluble |
| MSYLDTATDLPNQTLFLEYLNIALSNARRHHAQVGVLLCQINNWSDLKRKRGDAVANAFLQEAGQKLKSNLRNGDIVSRWDKDEFIFLVSKVQDTSSLLGIAQRLMKPVLAPVTAGGRPFQPEITYGVALYPVDGEQVNDLIGHIRENLQQLLPQPTNPGSGLEHHHHHH | soluble |
